Molecular target: purified recombinant full-length WDR5 (UniProt P61964)

Which “core complex H3K4 dimethylation activity, mutant against wild type” value does the source give for “GST-tagged MLL2 Win-SET domain, MLL2(5319-5537), Win motif arginine to alanine mutant” here?
Its value is “a 2-fold increase in this activity with the MLL2 Win motif variant”.

Which “core complex methyltransferase activity, H3K4me1 and H3K4me2 peptides, mutant against wild type” value does the source give for “GST-tagged SETd1A Win-SET domain, Setd1A(1474-1708), Win motif arginine to alanine mutant” here?
The value was “at least a 2-fold reduction in activity compared to their wild-type counterparts”.

For “GST-tagged MLL4 Win-SET domain, MLL4(2490-2715), Win motif arginine to alanine mutant”, which “core complex methyltransferase activity, H3K4me1 peptide, mutant against wild type” value is on record?
Its value is “showed similar amounts of activity compared to that of their wild-type counterparts”.
